The text below walks through data of patent US20190374629A1.

The target in experiment [1] is basigin (human) (UniProt P35613). The experiment can be described thus: SPR (BIAcore T200), basigin amine-coupled to a CM5 chip; analyte PfRH5ΔNL lyophilised and resuspended before measurement, two-fold dilutions from a top concentration of 8 µM, global 1:1 fit [lower left panel (lyophilised]. (In general: SPR reads the build-up and loss of mass on a sensor chip optically.)

Experiment [2] shares this target. The experiment can be described thus: SPR, BIAcore T200, basigin amine-coupled on CM5 chip, RH5 as analyte 8-0.0625 µM, global 1:1 fit, 20 °C.
Experiment [3] has the same target. As to the kind of experiment: SPR (BIAcore T200), basigin amine-coupled to a CM5 chip; analyte PfRH5ΔNLHS1 lyophilised and resuspended before measurement, two-fold dilutions from a top concentration of 8 µM, global 1:1 fit [lower right panel (lyophilised].

One may read the Kd as the concentration at which binding is half-saturated. A low value points to tighter binding. Consider “PfRH5ΔNL (from UniProt Q8IFM5 140-526) (ligand)”, for which the figures for the Kd with basigin (human) [1] and in the experiment with basigin (human) [2] were 310 nM and 290 nM, respectively.
Regarding “PfRH5ΔNLHS1 (from UniProt Q8IFM5 140-526) (ligand)”, the dissociation constant Kd with basigin (human) [3] was 300 nM; with basigin (human) [2], 410 nM.
